The results in this text go back to patent US20030162228A1.

Where no end group is shown, it is not given here.

The labels stand for the following.
T1: TAK1 expressed from yeast 2-hybrid expression vector pBTMHu11F (Homo sapiens (Human)) (UniProt O43318)
T1 sequence: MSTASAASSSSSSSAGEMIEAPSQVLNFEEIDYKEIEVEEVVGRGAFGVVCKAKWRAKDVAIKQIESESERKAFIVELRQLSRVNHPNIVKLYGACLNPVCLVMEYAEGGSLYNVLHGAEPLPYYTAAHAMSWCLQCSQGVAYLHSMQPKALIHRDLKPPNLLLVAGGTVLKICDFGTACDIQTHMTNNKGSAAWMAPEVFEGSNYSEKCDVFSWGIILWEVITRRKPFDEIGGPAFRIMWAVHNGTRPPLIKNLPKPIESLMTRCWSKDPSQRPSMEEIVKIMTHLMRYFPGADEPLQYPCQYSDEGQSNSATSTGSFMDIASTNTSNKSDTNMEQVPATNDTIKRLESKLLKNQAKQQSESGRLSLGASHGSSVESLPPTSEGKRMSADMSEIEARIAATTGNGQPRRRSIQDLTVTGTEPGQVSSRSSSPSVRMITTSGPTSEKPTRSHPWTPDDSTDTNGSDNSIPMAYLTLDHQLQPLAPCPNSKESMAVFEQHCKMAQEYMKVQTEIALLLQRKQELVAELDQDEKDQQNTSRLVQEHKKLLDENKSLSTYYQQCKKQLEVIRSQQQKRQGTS

B1: TAB1C21, fusion with the GAL4 transcription activated domain (pGAD-TAB1C21) (peptide, not shown: large carriers)
chain: FAEFYRLWSVDHGEQSVVTAP
modifications: also: fusion with GAL4 transcription activation domain
B2: TAB1C20, fusion with the GAL4 transcription activated domain (pGAD-TAB1C20) (peptide, not shown: large carriers)
chain: AEFYRLWSVDHGEQSVVTAP
modifications: also: fusion with GAL4 transcription activation domain
B3: TAB1C24, fusion with the GAL4 transcription activated domain (pGAD-TAB1C24) (peptide, not shown: large carriers)
chain: YVDFAEFYRLWSVDHGEQSVVTAP
modifications: also: fusion with GAL4 transcription activation domain
B4: TAB1C22, fusion with the GAL4 transcription activated domain (pGAD-TAB1C22) (peptide, not shown: large carriers)
chain: DFAEFYRLWSVDHGEQSVVTAP
modifications: also: fusion with GAL4 transcription activation domain
B5: TAB1C23, fusion with the GAL4 transcription activated domain (pGAD-TAB1C23) (peptide, not shown: large carriers)
chain: VDFAEFYRLWSVDHGEQSVVTAP
modifications: also: fusion with GAL4 transcription activation domain

The target in the experiment is T1, TAK1 expressed from yeast 2-hybrid expression vector pBTMHu11F (Homo sapiens (Human)). Put plainly: cell-based or functional assay.
In the case of B1, the β-galactosidase activity of yeast L40 (yeast 2-hybrid), ratio based on TAB1C68 (ratio to TAB1C68) came to 0.03.

On to B2, for which the β-galactosidase activity of yeast L40 (yeast 2-hybrid), ratio based on TAB1C68 (ratio to TAB1C68) came to 0.03.

For the molecule B3, the β-galactosidase activity of yeast L40 (yeast 2-hybrid), ratio based on TAB1C68 (ratio to TAB1C68) was found to be 0.35.

For the molecule B4, the β-galactosidase activity of yeast L40 (yeast 2-hybrid), ratio based on TAB1C68 (ratio to TAB1C68) is 0.03.

Regarding B5, the β-galactosidase activity of yeast L40 (yeast 2-hybrid), ratio based on TAB1C68 (ratio to TAB1C68) came out at 0.05.
